Assay [1] has as its target ΔM-N L-selectin–GFP (human) (UniProt P14151). Nature of the assay: FRET or BRET; FLIM measurement of FRET; THP-1 cells perfused over TNF-activated HUVECs, fixed in 4% PFA at 6 min (early TEM); optical section below the endothelium (base, transmigrated pseudopods). Background: In BRET a luciferase serves as donor, and the signal depends on an acceptor being close.
Assay [2] shares this target. Nature of the assay: FRET or BRET; FLIM measurement of FRET; THP-1 cells perfused over TNF-activated HUVECs, fixed in 4% PFA at 6 min (early TEM); optical section above the endothelium (top, non-transmigrated uropods).
Assay [3] has the same target. The assay can be described thus: FRET or BRET; FLIM measurement of FRET between GFP (donor, on L-selectin) and RFP (on the ERM protein); unchallenged THP-1 cells seeded onto poly-L-lysine-coated coverslips for 10 min at 37°C, fixed.
Assay [4] has the same target. The assay can be described thus: FRET or BRET; FLIM measurement of FRET; THP-1 cells perfused over TNF-activated HUVECs, fixed in 4% PFA at 25 min (late TEM); optical section below the endothelium (base, transmigrated pseudopods).
Assay [5] shares this target. Nature of the assay: FRET or BRET; FLIM measurement of FRET; THP-1 cells perfused over TNF-activated HUVECs, fixed in 4% PFA at 25 min (late TEM); optical section above the endothelium (top, non-transmigrated uropods).

Chain of UniProt P14151 (P14151 39-372, stated change not applied): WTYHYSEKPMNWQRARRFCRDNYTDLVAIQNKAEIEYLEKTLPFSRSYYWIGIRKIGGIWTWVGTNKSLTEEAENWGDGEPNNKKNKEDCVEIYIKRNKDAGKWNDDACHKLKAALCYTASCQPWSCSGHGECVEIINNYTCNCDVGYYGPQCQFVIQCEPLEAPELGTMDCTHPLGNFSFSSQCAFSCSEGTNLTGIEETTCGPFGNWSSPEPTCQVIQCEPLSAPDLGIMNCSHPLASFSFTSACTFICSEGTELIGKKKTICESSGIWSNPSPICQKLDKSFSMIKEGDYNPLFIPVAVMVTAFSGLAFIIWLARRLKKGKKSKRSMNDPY

Turning to “ezrin–RFP (from UniProt P15311 1-586) (natural protein)”, in assay [1], the FRET efficiency (pseudopods, 6 min) is 7.1%. For the same substance, in assay [2], the FRET efficiency (uropods, 6 min) came out at 6.5%. Moreover, in assay [3], the fold FRET efficiency against moesin with the same L-selectin (unchallenged cells) came to 3.2 fold. Besides, the FRET efficiency (pseudopods, 25 min) in assay [4] amounted to 6.5%. In assay [5], this substance displayed an FRET efficiency (uropods, 25 min) of 7%.
For “moesin–RFP (from UniProt P26041 1-577) (natural protein)”, the FRET efficiency (pseudopods, 6 min) in assay [1] is 2.4%. Moreover, the FRET efficiency (uropods, 6 min) in assay [2] is 2.7%. Also, the FRET efficiency (pseudopods, 25 min) in assay [4] turned out to be 4.2%. Besides, the FRET efficiency (uropods, 25 min) in assay [5] stood at 2%.

Values taken from paper PMC6051341.
